Assay [1] addresses T1, hGPVI-hFc fusion protein (human).
T1 construct: also called GPVI-Fc fusion protein; human GPVI-Fc
Description: competition assay, GPVI-Fc pre-incubated with Fab, binding to collagen-coated plates (DELFIA), Test 3.

For assay [2], the target named is T1, hGPVI-hFc fusion protein. Kind of assay: competition assay, GPVI-Fc pre-incubated with Fab, binding to collagen-coated plates (DELFIA), Test 1.
Assay [3] addresses T1, hGPVI-hFc fusion protein. Description: competition assay, GPVI-Fc pre-incubated with Fab, binding to collagen-coated plates (DELFIA), Test 2.
The target of assay [4] is T2, human GPVI on the platelet surface (human, UniProt Q9HCN6 21-339).
T2 sequence (looked up): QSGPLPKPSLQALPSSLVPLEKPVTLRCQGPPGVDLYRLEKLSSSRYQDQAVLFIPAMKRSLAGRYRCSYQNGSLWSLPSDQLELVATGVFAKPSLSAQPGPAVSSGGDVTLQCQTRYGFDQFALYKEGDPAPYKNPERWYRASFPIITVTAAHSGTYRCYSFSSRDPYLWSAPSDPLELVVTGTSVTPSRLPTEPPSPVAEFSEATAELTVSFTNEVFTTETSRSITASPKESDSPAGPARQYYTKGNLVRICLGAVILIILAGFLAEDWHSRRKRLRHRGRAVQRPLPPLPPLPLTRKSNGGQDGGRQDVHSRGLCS
Kind of assay: cell-based or functional assay.

B1: non-humanized Fab construct based on the original clone 390 without the His-tag (Fab, V domains shown)
VH: QVQLKESGPGLVAPSQSLSITCTVSGFSLTGYGVNWVRQPPGKGLEWLGMIWGDGSTDYNSTLKSRLSISKDNSKSQVFLKMNSLQTDDTARYYCARDLPMDYWGQGTSVTVSS
VL: DIQMTQSPSSLSASLGGKVTITCKASQDINKYIAWYQHKPGKGPSLLIHYTSTLQPGIPSRFSGSGSGRDYSFSISNLEPEDIATYYCLQYANLLTFGGGTKLEIKR
Broadly, the IC50 is the concentration that inhibits the measured activity by half. Regarding B1, the 50% inhibitory concentration (IC50) in the assay with hGPVI-hFc fusion protein [1] came to 0.99 µg/mL; with hGPVI-hFc fusion protein [2], 0.49 µg/mL; with hGPVI-hFc fusion protein [3] it was 0.56 µg/mL. In addition, the “IC50 for inhibition of collagen induced platelet aggregation (human platelet rich plasma), Test 1” value (“IC50 for inhibition … Test 1” below) in assay [4] amounted to 1.6 µg/mL. For the same molecule, the “IC50 for inhibition of collagen induced platelet aggregation (human platelet rich plasma), Test 2” value (from here on “IC50 for inhibition … Test 2”) in assay [4] was 6.4 µg/mL. Also, the “IC50 for inhibition of collagen induced platelet aggregation (human platelet rich plasma), Test 3” value (shortened to “IC50 for inhibition … Test 3”) in assay [4] was found to be 1.3 µg/mL.

B2: humanized anti-GPVI Fab VL1/VH2 (Fab, V domains shown)
VH: QVQLQESGPGLVAPSQSLSITCTVSGFSLTGYGVNWVRQPPSRGLEWLGMIWGDGSTDYQSTLKSRLSISKDNSKSQVFLKMNSLTTDDTARYYCARDLPMDYWGQGTSVTVSS
VL: DIQMTQSPSSLSASVGGRVTITCKASQDINKYIAWYQHKPGKGPSLLIHYTSTLQPGVPSRFSGSGSGRDYSFSISNLQPEDIATYYCLQYANLLTFGGGTKLEIKR
For B2, in assay [4], the “IC50 for inhibition … Test 1” value was found to be 2.3 µg/mL; the “IC50 for inhibition … Test 2” value is 2 µg/mL; the “IC50 for inhibition … Test 3” value was determined as 1.1 µg/mL.

B3: humanized anti-GPVI Fab VL1/VH5 (Fab, V domains shown)
VH: QVQLQESGPGLVAPSQSLSITCTVSGFSLTGYGVNWVRQPPSRGLEWLGMIWGDGSTDYQSTLKSRLSISKDNSKSQVFLKMNSLTTDDTARYYCARDLPMDEWGQGTSVTVSS
VL: DIQMTQSPSSLSASVGGRVTITCKASQDINKYIAWYQHKPGKGPSLLIHYTSTLQPGVPSRFSGSGSGRDYSFSISNLQPEDIATYYCLQYANLLTFGGGTKLEIKR
Take B3: in assay [4], the “IC50 for inhibition … Test 1” value is 1.9 µg/mL; the “IC50 for inhibition … Test 2” value worked out at 2.3 µg/mL; the “IC50 for inhibition … Test 3” value turned out to be 1.2 µg/mL.

B4: humanized anti-GPVI Fab VL2/VH2 (Fab, V domains shown)
VH: QVQLQESGPGLVAPSQSLSITCTVSGFSLTGYGVNWVRQPPSRGLEWLGMIWGDGSTDYQSTLKSRLSISKDNSKSQVFLKMNSLTTDDTARYYCARDLPMDYWGQGTSVTVSS
VL: DIQMTQSPSSLSASVGGRVTITCKASQDINKYIAWYQHKPGKGPSLLIHYTSTLQPGVPSRFSGSGSGRDYSFSISNLQPEDIATYYCLQYAHLLTFGGGTKLEIKR
Turning to B4, in assay [4], the “IC50 for inhibition … Test 1” value is 1.4 µg/mL; the “IC50 for inhibition … Test 2” value is 2.4 µg/mL; the “IC50 for inhibition … Test 3” value worked out at 2.3 µg/mL.

B5: humanized anti-GPVI Fab VL1/VH3 (Fab, V domains shown)
VH: EVQLLESGPGLVAPSGSLSITCTVSGFSLTGYGVNWVRQPPGKGLEWLGMIWGDGSTDYQSTLKSRLSISKDNSKSQVFLKMNSLRTDDTARYYCARDLPMDYWGLGTSVTVSS
VL: DIQMTQSPSSLSASVGGRVTITCKASQDINKYIAWYQHKPGKGPSLLIHYTSTLQPGVPSRFSGSGSGRDYSFSISNLQPEDIATYYCLQYANLLTFGGGTKLEIKR
On to B5, for which, in assay [4], the “IC50 for inhibition … Test 1” value was 1.7 µg/mL; the “IC50 for inhibition … Test 2” value is 1.5 µg/mL; the “IC50 for inhibition … Test 3” value worked out at 1.5 µg/mL.

B6: humanized anti-GPVI Fab VL1/VH4 (Fab, V domains shown)
VH: QVQLQESGPGLVAPSQSLSITCTVSGFSLTYYGVNWVRQPPSRGLEWLGMIWGDGSTDYQSTLKSRLSISKDNSKSQVFLKMNSLTTDDTARYYCARDLPMDYWGQGTSVTVSS
VL: DIQMTQSPSSLSASVGGRVTITCKASQDINKYIAWYQHKPGKGPSLLIHYTSTLQPGVPSRFSGSGSGRDYSFSISNLQPEDIATYYCLQYANLLTFGGGTKLEIKR
Turning to B6, in assay [4], the “IC50 for inhibition … Test 1” value came to 1.6 µg/mL; the “IC50 for inhibition … Test 2” value came to 1.8 µg/mL; the “IC50 for inhibition … Test 3” value was 1.2 µg/mL.

B7: humanized anti-GPVI Fab VL3/VH4 (Fab, V domains shown)
VH: QVQLQESGPGLVAPSQSLSITCTVSGFSLTYYGVNWVRQPPSRGLEWLGMIWGDGSTDYQSTLKSRLSISKDNSKSQVFLKMNSLTTDDTARYYCARDLPMDYWGQGTSVTVSS
VL: DIQMTQSPSSLSASVGGRVTITCKASQDINKYIAWYQHKPGKGPSLLIHYTSTLQPGVPSRFSGSGSGRDYSFSISNLQPEDIATYYCLQYALLLTFGGGTKLEIKR
On to B7, for which, in assay [4], the “IC50 for inhibition … Test 1” value was 1 µg/mL; the “IC50 for inhibition … Test 2” value amounted to 2.3 µg/mL; the “IC50 for inhibition … Test 3” value stood at 2 µg/mL.

B8: humanized anti-GPVI Fab VL3/VH2 (Fab, V domains shown)
VH: QVQLQESGPGLVAPSQSLSITCTVSGFSLTGYGVNWVRQPPSRGLEWLGMIWGDGSTDYQSTLKSRLSISKDNSKSQVFLKMNSLTTDDTARYYCARDLPMDYWGQGTSVTVSS
VL: DIQMTQSPSSLSASVGGRVTITCKASQDINKYIAWYQHKPGKGPSLLIHYTSTLQPGVPSRFSGSGSGRDYSFSISNLQPEDIATYYCLQYALLLTFGGGTKLEIKR
As to B8, in assay [4], the “IC50 for inhibition … Test 1” value came to 1.9 µg/mL; the “IC50 for inhibition … Test 2” value worked out at 0.9 µg/mL; the “IC50 for inhibition … Test 3” value turned out to be 2.1 µg/mL.

B9: humanized anti-GPVI Fab VL1/VH1 (Fab, V domains shown)
VH: QVQLQESGPGLVAPSQSLSITCTVSGFSLTGYGVNWVRQPPSRGLEWLGMIWGDGSTDYQSTLKSRLSISKDTSKSQVFLKMNSLTTDDTARYYCARDLPMDYWGQGTSVTVSS
VL: DIQMTQSPSSLSASVGGRVTITCKASQDINKYIAWYQHKPGKGPSLLIHYTSTLQPGVPSRFSGSGSGRDYSFSISNLQPEDIATYYCLQYANLLTFGGGTKLEIKR
Consider B9, for which, in assay [4], the “IC50 for inhibition … Test 1” value came to 1.5 µg/mL and the “IC50 for inhibition … Test 2” value is 2.3 µg/mL.

For the origin of these results see patent EP2402371A1 (SANOFI, dated 2012).
